Measurements taken from the DeepSol protein solubility set.

assay: soluble on expression in E. coli; label from the status in PepcDB or PDB records

| Sequence | soluble on expression in E. coli |
| --- | --- |
| MGSKGVYQYHWQSHNVKHSGVDDMVLLSKITENSIVENLKKRYMDDYIFTYIGSVLISVNPFKQMPYFGEKEIEMYQGAAQYENPPHIYALADNMYRNMIIDRENQCVIISGESGAGKTVAAKYIMSYISRVSGGGTKVQHVKDIILQSNPLLEAFGNAKTVRNNNSSRFGKYFEIQFSPGGEPDGGKISNFLLEKSRVVMRNPGERSFHIFYQLIEGASAEQKHSLGITSMDYYYYLSLSGSYKVDDIDDRREFQETLHAMNVIGIFAEEQTLVLQIVAGILHLGNISFKEVGNYAAVESEEFLAFPAYLLGINQDRLKEKLTSRQMDSKWGGKSESIHVTLNVEQACYTRDALAKALHARVFDFLVDSINKAMEKDHEEYNIGVLDIYGFEIFQKNGFEQFCINFVNEKLQQIFIELTLKAEQEEYVQEGIRWTPIEYFNNKIVCDLIENKVNPPGIMSILDDVCATMHAVGEGADQTLLQKLQMQIGSHEHFNSWNQGFIIHHYAGKVSYDMDGFCERNRDVLFMDLIELMQSSELPFIKSLFPENLQADKKGRPTTAGSKIKKQANDLVSTLMKCTPHYIRCIKPNETKKPRDWEESRVKHQVEYLGLKENIRVRRAGYAYRRIFQKFLQRYAILTKATWPSWQGEEKQGVLHLLQSVNMDSDQFQLGRSKVFIKAPESLFLLEEMRERKYDGYARVIQKSWRKFVARKKYVQMREEASDLLLNKKERRRNSINRNFIGDYIGMEEHPELQQFVGKREKIDFADTVTKYDRRFKGVKRDLLLTPKCLYLIGREKVKQGPDKGLVKEVLKRKIEIERILSVSLSTMQDDIFILHEQEYDSLLESVFKTEFLSLLAKRYEEKTQKQLPLKFSNTLELKLKKENWGPWSAGGSRQVQFHQGFGDLAVLKPSNKVLQVSIGPGLPKNSRPTRRNTTQNTGYSSGTQNANYPVRAAPPPPGYHQNGVIRNQYVPYPHAPGSQRSNQKSLYTSMARPPLPRQQSTSSDRVSQTPESLDFLKVPDQGAAGVRRQTTSRPPPAGGRPKPQPKPKPQVPQCKALYAYDAQDTDELSFNANDIIDIIKEDPSGWWTGRLRGKQGLFPNNYVTKI | soluble |
| MGSKRVCPDANNSVKSKKAKTLDFLAHPRRKIAIQFFYLGWEHDGLVQQPHTQNTVENHIMQALIKTHLIEDWTKCDFSRCGRTDKGVSAFKQTAAMVVRSLCPGDSGVFWSDSTQEHQKVDYKASGEELPYVKMLNGVLPKTIRVFAWAPVAQTFNARFDCNRRTYKYSFAKADLNLEKMRQGAELLVGEHDFSNFCQIDMNEKRLLQSYVRKVYEVKVEQVSTHPENDMYSMVELTVSGSGFLWHMIRYIVTILQEIGRENEQPSLISQLLDLKKYPSRPQYTLASDTPLCLFDCGYKSEDVEWKVHDYTLKSTVTGLQKTWATYQARSRMMENMLGELTGMAEFSSGDANKGLHEFVQDRPIPSNYIRFENRKMCESLESKKEKMAEKKKNGEESSDKL | not soluble |
| MGSKYSKATNSINDALSSSYLVPFESYRVPLVDLEEATNNFDHKFLIGHGVFGKVYKGVLRDGAKVALKRRTPESSQGIEEFETEIETLSFCRHPHLVSLIGFCDERNEMILIYKYMENGNLKRHLYGSDLPTMSMSWEQRLEICIGAARGLHYLHTRAIIHRDVKSINILLDENFVPKITDFGISKKGTELGQTHLSTVVKGTLGYIDPEYFIKGRLTEKSDVYSFGVVLFEVLCARSAIVQSLPREMVNLAEWAVESHNNGQLEQIVDPNLADKIRPESLRKFGDTAVKCLALSSEDRPSMGDVLWKLEYALRLQESVIHHHHHH | soluble |
| MGSSHHHHHHDYDIPTTENLYFQGGGGGGMRAAVVYKTDGHVKRIEEALKRLEVEVELFNQPSEELENFDFIVSVGGDGTILRILQKLKRCPPIFGINTGRVGLLTHASPENFEVELKKAVEKFEVERFPRVSCSAMPDVLALNEIAVLSRKPAKMIDVALRVDGVEVDRIRCDGFIVATQIGSTGYAFSAGGPVVEPYLECFILIPIAPFRFGWKPYVVSMERKIEVIAEKAIVVADGQKSVDFDGEITIEKSEFPAVFFKNEKRFRNLFGKVRSIG | soluble |
| MGSSHHHHHHGSPIHDKSPRPQEFAAVDLGSNSFHMVIARVVDGAMQIIGRLKQRVHLADGLGPDNMLSEEAMTRGLNCLSLFAERLQGFSPASVCIVGTHTLRQALNATDFLKRAEKVIPYPIEIISGNEEARLIFMGVEHTQPEKGRKLVIDIGGGSTELVIGENFEPILVESRRMGCVSFAQLYFPGGVINKENFQRARMAAAQKLETLTWQFRIQGWNVAMGASGTIKAAHEVLMEMGEKDGIITPERLEKLVKEVLRHRNFASLSLPGLSEERKTVFVPGLAILCGVFDALAIRELRLSDGALREGVLYEMEGRFRHQDVRSRTASSLANQYHIDSEQARRVLDTTMQMYEQWREQQPKLAHPQLEALLRWAAMLHEVGLNINHSGLHRHSAYILQNSDLPGFNQEQQLMMATLVRYHRKAIKLDDLPRFTLFKKKQFLPLIQLLRLGVLLNNQRQATTTPPTLTLITDDSHWTLRFPHDWFSQNALVLLDLEKEQEYWEGVAGWRLKIEEESTPEIAA | soluble |
| MGSSHHHHHHMTYEYILVRYGEMTTKGKNRSKFVSTLKDNVKFKLKKFPNIKIDATHDRMYIQLNGEDHEAVSERLKDVFGIHKFNLAMKVPSELEDIKKGALAAFLQVKGDVKTFKITVHRSYKHFPMRTMELLPEIGGHILENTEDITVDVHNPDVNVRVEIRSGYSYIMCDERMGAGGLPVGVGGKVMVLLSGGIDSPVAAYLTMKRGVSVEAVHFHSPPFTSERAKQKVIDLAQELTKYCKRVTLHLVPFTEVQKTINKEIPSSYSMTVMRRMMMRITERIAEERNALAITTGESLGQVASQTLDSMHTINEVTNYPVIRPLITMDKLEIIKIAEEIGTYDISIRPYEDCCTVFTPASPATKPKREKANRFEAKYDFTPLIDEAVANKETMVLQTVEVVAEEEKFEELF | soluble |
| MGSSHHHHHHSSGLVPAGSHMSDFDNITTADDVFKLAAQRTGLSEIDSDSWREGLALIVDEVNTSPVFTPFGRQRVLDDATNALGRRLQVHAYIQDHPEVLDAPVERPLIVLGMPRTGTTVISYLLDQDPARRSLLHWQCVHPIPPASTETLRTDPRCLALLDEQRKILDAVTRAKMPLPHWEDADGPTEDMFIHNQDFKGLSWDSFLPTDRYARWLFDEADMSSTYEYQKRYLQVLQSTAPGSWSLKMPSHSVHIEALLKVFPDARLIWAHRDPYKATGSLCNLWRLPQSLVMNTELLDQTEMGRLAMWQMRYHVDRPLRARERIGDERFFHMYYHEMMRDPMDVMRRIYEWADEPLTAETEARMRNWLAHHPQDRFALNAYRLDEYGLTVEALQPIFAEYLDTFDIELEGRP | soluble |
| MGSSHHHHHHSSGLVPRGSHMAADNRVQMRTTINNESPLLLSPLYGNDNGNGLWWGNTLKGAWEAIPEDVKPYAAIELHPAKVCKPTSCIPRDTKELREWYVKMLEEAQSLNIPVFLVIMSAGERNTVPPEWLDEQFQKYSVLKGVLNIANYWIYNNQLAPHSAKYLEVCAKYGAHFIWHDHEKWFWETIMNDPTFFEASQKYHKNLVLATKNTPIRDDAGTDSIVSGFWLSGLCDNWGSSTDTWKWWEKHYTNTFETGRARDMRSYASEPESMIAMEMMNVYTGGGTVYNFECAAYTFMTNDVPTPAFTKGIIPFFRHAIQNPAPSKEEVVNRTKAVFWNGEGRISSLNGFYQGLYSNDETMPLYNNGRYHILPVIHEKIDKEKISSIFPNAKILTKNSEELSSKVNYLNSLYPKLYEGDGYAQRVGNSWYIYNSNANINKNQQVMLPMYTNNTKSLSLDLTPHTYAVVKENPNNLHILLNNYRTDKTAMWALSGNFDASKSWKKEELELANWISKNYSINPVDNDFRTTTLTLKGHTGHKPQINISGDKNHYTYTENWDENTHVYTITVNHNGMVEMKI | soluble |
| MGSSHHHHHHSSGLVPRGSHMAEFRFIKTSLDGAIIIEPEVYTDERGYFMETFNEAIFQENGLEVRFVQDNESMSVRGVLRGLHFQREKPQGKLVRVIRGEIFDVAVDLRKNSDTYGEWTGVRLSDENRREFFIPEGFAHGFLALSDECIVNYKCTELYHPEYDSGIPWDDPDIGIDWPLEMVDDLIISEKDRNWKPLRENPVYL | soluble |
| MGSSHHHHHHSSGLVPRGSHMAMVELSGTVTFWDTSNEAEKATYQALAEGFEKEHPKVDVKYVNVPFGEANAKFKNAAGGNSGAPDVMRTEVAWVADFASIGYLAPLDGTPALDDGSDHLPQAAASTRYEGKTYAVPQVIDTLALFYNKELLTKAGVEVPGSVAELKTAAAEITEKTGATGLYLRGDDPYWFLPYLYGEGGDLVDEKNKTVTVDDEAGVRAYRVIKDLVDSKAAITDASDGWNNMQNAFKSGKVAMMVNGPWAIEDVKAGARFKDAGNLGVAPVPAGSAGQGSPQGGWNLSVYAGSKNLDASYAFVKYMSSAKVQQQTTEKLSLLPTRTSVYEVPSVADNEMVKFFKPAVDKAVERPWIAEGNALFEPIRLQMANVLSGETSPDEAAANTGDAYRKLLKDYK | soluble |
| MGSSHHHHHHSSGLVPRGSHMAPIVETAKETNSDSSLYLDLMIKVLAGTVYEDPAHRENFSHRDSTYREEVRNEGRDWPANAHTMIGIKRLENIRQCVEDVIGNNVPGDLVETGVWRGGACILMRGILRAHDVRDRTVWVADSFQGIPDVGEDGYAGDRKMALHRRNSVLAVSEEEVRRNFRNYDLLDEQVRFLPGWFKDTLPTAPIDTLAVLRMDGDLYESTWDTLTNLYPKVSVGGYVIVDDYMMCPPCKDAVDEYRAKFDIADELITIDRDGVYWQRTR | soluble |
| MGSSHHHHHHSSGLVPRGSHMASKRCRQCSGDSASSSTSSLSPSELPPSKKAAGGQRVTAEVEVAPITTDATSATVTAAGGAKKKATTGSPARRTSSAAKITNGDAGELIRTAEALAALNAKKSEKEIWSDVVPFVRRTTDSDFDPSRMYKFITWNVAGLRGLLKKNASALRAFMEAEKPDVLCLQETKLNVDEADANATLGVVDGYSFVDHPCAFKRGYSGTRTYMKNSTTVKGLHARCTRGFALPSEPQADAAAGSRVLVEGAGDEEGRVLTTFLSPDPDSASSSSRIALVNTYVANSGMGLTRLPYRVQSFDPSMREYLHRLDTWATENAAVPSAAAMGSGSSPHGFIWAGDLNVAERDYDRYYAGTFKSMQECSGFAPEERMSFRETMQRTNSVDIFRQLYPQAGPVYSFWSQRINGRPRNLGWRLDYFVVSSRLASYVVDCFPMPTVMGSDHCPFQMWMRHP | soluble |
| MGSSHHHHHHSSGLVPRGSHMASMTEQRTKYADSILTTKSPYEATETIRIRLSQVKLLNKDFYLLFKELANLKRNYAQQLRKIIAENEDITKILNAQMIESNVLTPQEMSAFRFNSLGELRNVWDTVIEELKSDLKSSTEYYNTLDQQVVRELKESVENNTSWRESKDLHSKLSKNAASIEHYSKNNENSSHLEEARRQWDQQSPYLFELFETIDYNRLDTLKNCMLRFQTSFSDYLLNTTKECETVMTKFLAFEPQSEIDRFAKDASQYNFQLSSSSKEVVPNNAS | soluble |
| MGSSHHHHHHSSGLVPRGSHMAVSGPDDYLQHSIVPTMHYQDSLPRLPIPKLEDTMKRYLNAQKPLLDDSQFRRTEALCKNFETGVGKELHAHLLAQDKQNKHTSYISGPWFDMYLTARDSIVLNFNPFMAFNPDPKSEYNDQLTRATNLTVSAVRFLKTLQAGLLEPEVFHLNPSKSDTDAFKRLIRFVPPSLSWYGAYLVNAYPLDMSQYFRLFNSTRIPRPNRDELFTDTKARHLLVLRKGHFYVFDVLDQDGNIVNPLEIQAHLKYILSDSSPVPEFPVAYLTSENRDVWAELRQKLIFDGNEETLKKVDSAVFCLCLDDFPMKDLIHLSHTMLHGDGTNRWFDKSFNLIVAEDGTAAVHFEHSWGDGVAVLRFFNEVFRDSTQTPAITPQSQPAATNSSASVETLSFNLSGALKAGITAAKEKFDTTVKTLSIDSIQFQRGGKEFLKKKQLSPDAVAQLAFQMAFLRQYGQTVATYESCSTAAFKHGRTETIRPASIFTKRCSEAFVRDPSKHSVGELQHMMAECSKYHGQLTKEAAMGQGFDRHLYALRYLATARGLNLPELYLDPAYQQMNHNILSTSTLNSPAVSLGGFAPVVPDGFGIAYAVHDDWIGCNVSSYSGRNAREFLHCVQKCLEDIFDALEGKAIKT | soluble |
